{
  "source": "patent US20090203580",
  "key": {"[1]": {"system": "heat-inactivated alpha-1 antitrypsin"}, "[2]": {"system": "human alpha-1 antitrypsin (native, not heat-inactivated; clinical grade, e.g. Aralast)"}},
  "data": [
    {"substance": "elastase (e.g., Sigma), species not stated", "values": [
      {"measurement": "elastase activity: hydrolysis of N-Succinyl-Ala-Ala-Ala-p-nitroanalide, absorbance at 410 nm", "setting": "[1]", "value": "combining HIAAT with elastase produced a curve similar to that of elastase alone"},
      {"measurement": "elastase activity: hydrolysis of N-Succinyl-Ala-Ala-Ala-p-nitroanalide, absorbance at 410 nm", "setting": "[2]", "value": "Combining native (NOT heat-inactivated) AAT ablated elastase processing of the N-Succinyl-Ala-Ala-Ala-p-nitroanalide substrate and blocked the increase in A410 nm"}
    ]}
  ]
}
